One molecule from patent publication US20120225060A1 can be followed below.

Like-named read-outs stand apart in the source and are kept apart here.

Assay [1] has as its target recombinant human IL-6R-extracellular domain (ECD) (human) (UniProt P08887). Nature of the assay: SPR.
Assay [2] has the same target. Nature of the assay: direct ELISA on IL-6R. (An ELISA detects its analyte on a solid surface through an enzyme-linked reagent.)
In assay [3] the target is IL-6R on human myeloma U266B1 cells (human) (UniProt P08887). The assay is described as follows: cell-based or functional assay.
Chain of IL-6R on human myeloma U266B1 cells (human) (P08887 20-468): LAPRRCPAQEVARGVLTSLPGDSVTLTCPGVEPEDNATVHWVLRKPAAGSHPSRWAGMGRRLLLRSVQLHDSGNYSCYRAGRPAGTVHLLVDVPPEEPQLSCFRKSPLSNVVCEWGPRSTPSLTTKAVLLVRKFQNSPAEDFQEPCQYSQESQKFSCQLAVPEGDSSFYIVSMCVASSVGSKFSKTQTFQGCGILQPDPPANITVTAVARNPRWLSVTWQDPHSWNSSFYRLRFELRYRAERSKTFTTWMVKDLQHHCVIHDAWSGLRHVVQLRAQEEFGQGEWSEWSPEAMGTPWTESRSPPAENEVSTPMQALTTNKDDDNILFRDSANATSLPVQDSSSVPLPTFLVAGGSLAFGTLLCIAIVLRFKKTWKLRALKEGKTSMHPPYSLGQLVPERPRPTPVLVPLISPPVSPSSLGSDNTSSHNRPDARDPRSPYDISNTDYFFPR
Assay [4] shares this target. Nature of the assay: cell-based or functional assay. The source holds these as a separate data set.
For assay [5] the target is unchanged. The assay is described as follows: FACS on U266B1 cells.
For assay [6] the target is unchanged. The assay is described as follows: FACS binding to IL-6R on U266B1 cells.
For assay [7] the target is unchanged. The assay is described as follows: FACS binding to IL-6R on U266B1 cells. The source holds these as a separate data set. (A flow cytometer gives signals particle by particle.)
The target of assay [8] is recombinant human IL-6R-extracellular domain (ECD) (human) (UniProt P08887). Nature of the assay: receptor-ligand ELISA, blocking of IL-6 binding to IL-6R.
Chain of recombinant human IL-6R-extracellular domain (ECD) (human) (P08887 20-365): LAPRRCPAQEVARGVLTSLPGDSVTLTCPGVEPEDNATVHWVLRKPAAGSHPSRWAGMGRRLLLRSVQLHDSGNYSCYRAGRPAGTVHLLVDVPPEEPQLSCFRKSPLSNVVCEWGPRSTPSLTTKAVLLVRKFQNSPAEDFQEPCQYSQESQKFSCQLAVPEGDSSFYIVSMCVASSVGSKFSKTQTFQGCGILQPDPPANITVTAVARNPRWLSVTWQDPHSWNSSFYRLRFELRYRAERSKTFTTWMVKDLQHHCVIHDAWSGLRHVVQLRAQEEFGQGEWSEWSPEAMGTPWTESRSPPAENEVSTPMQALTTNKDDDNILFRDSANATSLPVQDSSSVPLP
For assay [9] the target is unchanged. Described as above. This is another data set of the same source.

B1: Tocilizumab (antibody, part only; not given: constant regions, V domains shown, not shown: another chain or arm of the molecule)
VH: QVQLQESGPGLVRPSQTLSLTCTVSGYSITSDHAWSWVRQPPGRGLEWIGYISYSGITTYNPSLKSRVTMLRDTSKNQFSLRLSSVTAADTAVYYCARSLARTTAMDYWGQGSLVTVSS
VL: DIQMTQSPSSLSASVGDRVTITCRASQDISSYLNWYQQKPGKAPKLLIYYTSRLHSGVPSRFSGSGSGTDFTFTISSLQPEDIATYYCQQGNTLPYTFGQGTKVEIK
One may read the Kd as the constant that tells how readily two partners part at equilibrium. One may read the koff as the first-order rate constant of dissociation. What is called kon is the second-order rate constant of association. What is called EC50 is the concentration giving half of the maximal effect. For orientation: EC50 (read off the curve) means the concentration needed to bring the measured effect to its halfway point. As a reminder, the IC50 is the midpoint of a concentration-inhibition curve. For B1, the equilibrium dissociation constant (Kd) in assay [1] is 3.85 nM. Besides, in assay [1], the koff came to 0.00097 s⁻¹. Besides, the kon in assay [1] is 252000 M⁻¹ s⁻¹. Further, the results for the 50% effective concentration (EC50) in assay [2], in [6] and in assay [7] were 0.0458 µg/mL, 0.206 µg/mL and 0.602 µg/mL, respectively. For the same molecule, the results for the TF-1 proliferation IC50 in [3] and in assay [4] were 0.04 µg/mL and 0.214 µg/mL, respectively. In addition, the EC50 (read off the curve) in assay [5] was found to be 0.6 µg/mL. Further, the IC50 in assay [8] was 0.56 µg/mL; in assay [9], 1.1 µg/mL.
